Test results published in PMC10858898.
“And” between values parts separate entries of the source, which are not always exact repeats. Identical values can stand only once.

Columns and labels:
[1] = target: MprE7-TH1 chimeric proteusin peptide; test: NMR titration; unlabeled SrpI titrated into 42.1 µM 15N-MprE7-TH1, MprE7-TH1:SrpI molar ratios 1:0 to 1:1, FAD 1:1 with SrpI; 100 mM NaCl, 20 mM sodium phosphate pH 7.5, 10% D2O; 25 °C, 800 MHz; TITAN 2D lineshape analysis with a two-state binding model; apparent KD; fits of subsets of the seven residues
[2] = target: MprE7-TH1 chimeric proteusin peptide; test: NMR titration; unlabeled SrpI titrated into 42.1 uM 15N-labeled MprE7-TH1, MprE7-TH1:SrpI molar ratios 1:0 to 1:1, FAD at 1:1 with SrpI; 100 mM NaCl, 20 mM sodium phosphate pH 7.5, 10% D2O, 25 °C; TITAN 2D lineshape analysis, two-state binding model; apparent

SrpI brominase (enzyme)
Kd [1]: 21.9 µM and 36.9 µM and 22 µM

SrpI brominase (flavin-dependent RiPP halogenase) (enzyme)
Kd [2]: 24.9 µM
koff [2]: 3.7 s⁻¹
